# Target: ubiquitin
row,Protein,"E3 ubiquitin ligase activity (in vitro ubiquitination reaction, anti-Ub Western blot)"
1,ZmTR1 protein (protein) MAGDDHVVVDVNGLAKSKDDGGSKKLSEDANGSAPAAASLSAAVDLVQEEEEEEGDGEEQPLIQAAECRICQEEDSVKNLEKPCACSGSLKYAHRACVQRWCNEKGDTTCEICHEEYKPGYTAPPRVQPDETTIDIDGDLVMDLRDPRILAVAAAQHRLLEAEYDGYASTDASGAAFCRSAALILMALLLLRHALSMSDNEGNDDDASTIFSLFLLRAAGFLLPCYIMAWIFSILHRRRQRQEEAALAAAEVAFILQSARGRALQFAIAPDSPATPQHEPVSQQQQ,"multiple bands occurred in the lane with the addition of E1, E2, ATP and Ub, while no band occurred in the control"
2,AtTR1 protein (protein) MADHLSLCTDRLITSESLDSEKDSDSSGESSYRPQGTDLASSSVNETEVPREYYAVADEEEPLLQSVECRICQEEDSTKNLEAPCACNGSLKYAHRKCVQRWCNEKGDITCEICHQPYQHGYTAPPPPPPDETIIHIGDDWENGVPLDLTDPRILAMAAAERHFLEADYDEYSENNSSGAAFCRSAALILMALLLLRDALNLTTNPDDEDDPTAFFSLFLLRAAGFLLPCYIMAWAIGILQRRRQRQEAAALAAAEVTFMIHGGGPQRRGLHFAVAPQPPISNVPTPV,"multiple bands occurred in the lane with the addition of E1, E2, ATP and Ub, while no band occurred in the control"
3,OsTR1-1 protein (protein) MGDHVAVDVGGLMASRGAGEEETGALIGMVECRICQEEDLAKNLESPCACSGSLKYAHRECVQRWCNEKGDIICEICHVSYKPGYTAPPQVHHDETTIEISSGDWSISGNRLDLHDPRILAMAAAQHRLLEDEYDEYTATNNNAAAFCRSIFLILMALLLLRHTLTITSSDDEDDASAIFSLFLLRAAGFLLPCYIMAWAISIMQRQRQRQEEAMLLPTEVAIILHRNGRTMQFAVAPESPTTPHPEQGQ,"multiple bands occurred in the lane with the addition of E1, E2, ATP and Ub, while no band occurred in the control"

# From patent publication US20130055470
